The values below come from publication PMC5255556, “mTORC1 phosphorylates LARP6 to stimulate type I collagen expression” (Scientific Reports, 2017).

The target in test [1] is T1, wt HA-LARP6 (La ribonucleoprotein domain family, member 6), full length (UniProt Q9BRS8 1-491).
T1 construct: LARP6 (La ribonucleoprotein domain family, member 6), full-length, re-cloned from pcDNA3 into pAd-CMV-Track; In cells the protein is a mixture of phosphorylated isoforms; The construct is described in earlier work of the authors; also called wt LARP6; FL HA-LARP6; source: HLFs (human lung fibroblasts), adenovirus-transduced, in lysate or in lysed microsomal fraction
T1 sequence (looked up): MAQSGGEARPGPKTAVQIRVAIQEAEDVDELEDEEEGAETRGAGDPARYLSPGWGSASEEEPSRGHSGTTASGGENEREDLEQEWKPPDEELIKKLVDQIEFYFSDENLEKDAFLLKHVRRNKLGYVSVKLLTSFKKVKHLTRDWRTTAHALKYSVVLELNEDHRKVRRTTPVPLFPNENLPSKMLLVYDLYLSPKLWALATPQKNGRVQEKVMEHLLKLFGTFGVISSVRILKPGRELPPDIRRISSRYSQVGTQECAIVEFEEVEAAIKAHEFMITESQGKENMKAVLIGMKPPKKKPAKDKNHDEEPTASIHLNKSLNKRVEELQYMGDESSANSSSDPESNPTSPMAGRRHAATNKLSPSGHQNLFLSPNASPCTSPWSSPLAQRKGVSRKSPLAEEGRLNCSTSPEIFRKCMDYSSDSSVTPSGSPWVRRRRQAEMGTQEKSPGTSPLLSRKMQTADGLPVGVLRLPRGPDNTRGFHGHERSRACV
Nature of the test: co-IP; HLFs transduced with HA-LARP6 adenovirus; lysate in 50 mM Tris-HCl pH 7.5, 150 mM NaCl, 0.5% NP-40, 1 mM DTT; IP with anti-HA antibody 3 h at 4 °C, protein A/G-agarose, blot with anti-STRAP; cells untreated, treated with rapamycin, or with raptor knockdown (shRNA). The following applies: partners not purified.

Test [2] has as its target T2, HA-LARP6 S348A/S409A mutant, full length (UniProt Q9BRS8 1-491, S348A | S409A).
T2 construct: LARP6 (La ribonucleoprotein domain family, member 6), full-length, with S348A and S409A; Made by QuickChange site-directed mutagenesis; expressed from adenovirus; source: HLFs (human lung fibroblasts), adenovirus-transduced, in lysate or in lysed microsomal fraction
T2 sequence (looked up): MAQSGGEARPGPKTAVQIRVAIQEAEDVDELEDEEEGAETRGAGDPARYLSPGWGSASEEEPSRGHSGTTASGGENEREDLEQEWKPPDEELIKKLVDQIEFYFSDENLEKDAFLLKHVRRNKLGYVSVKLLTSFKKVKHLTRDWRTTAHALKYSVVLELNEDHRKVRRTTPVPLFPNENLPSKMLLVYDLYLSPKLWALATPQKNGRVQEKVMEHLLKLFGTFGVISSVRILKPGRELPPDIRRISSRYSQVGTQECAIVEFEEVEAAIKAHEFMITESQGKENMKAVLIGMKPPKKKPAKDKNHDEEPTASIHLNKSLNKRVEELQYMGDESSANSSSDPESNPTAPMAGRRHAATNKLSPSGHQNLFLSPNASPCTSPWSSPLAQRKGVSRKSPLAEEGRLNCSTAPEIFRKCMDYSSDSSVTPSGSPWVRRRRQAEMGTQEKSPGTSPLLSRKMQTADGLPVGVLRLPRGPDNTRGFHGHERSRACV
The test is described as above. The following applies: partners not purified.

B1: serine-threonine kinase receptor-associated protein (STRAP) (natural protein, human (endogenous in HLFs), UniProt Q9Y3F4 1-350, looked up)
chain: MAMRQTPLTCSGHTRPVVDLAFSGITPYGYFLISACKDGKPMLRQGDTGDWIGTFLGHKGAVWGATLNKDATKAATAAADFTAKVWDAVSGDELMTLAHKHIVKTVDFTQDSNYLLTGGQDKLLRIYDLNKPEAEPKEISGHTSGIKKALWCSEDKQILSADDKTVRLWDHATMTEVKSLNFNMSVSSMEYIPEGEILVITYGRSIAFHSAVSLDPIKSFEAPATINSASLHPEKEFLVAGGEDFKLYKYDYNSGEELESYKGHFGPIHCVRFSPDGELYASGSEDGTLRLWQTVVGKTYGLWKCVLPEEDSGELAKPKIGFPETTEEELEEIASENSDCIFPSAPDVKA
notes: STRAP, serine-threonine kinase receptor-associated protein, endogenous in human lung fibroblasts, detected with anti-STRAP antibody; source: endogenous, HLF lysate
With B1, in test [1], the “fraction of STRAP pulled down after rapamycin relative to untreated cells” value is ~0.33 fraction of untreated. Besides, the “STRAP pulled down relative to wt HA-LARP6” value in test [2] was ~50 % less than wt HA-LARP6.
